Legend:
Experiment in all cases: Carterra LSA SPR
1H7 = target: 1H7
1D9 = target: 1D9
1C8 = target: 1C8
1A2 = target: 1A2
1B6 = target: 1B6
1D8 = target: 1D8
1B11-2 = target: 1B11-2
1D7 = target: 1D7
1E1 = target: 1E1

B1: huMICA (ligand)
chain: EPHSLRYNLTVLSWDGSVQSGFLTEVHLDGQPFLRCDRQKCRAKPQGQWAEDVLGNKTWDRETRDLTGNGKDLRMTLAHIKDQKEGLHSLQEIRVCEIHEDNSTRSSQHFYYDGELFLSQNLETKEWTMPQSSRAQTLAMNVRNFLKEDAMKTKTHYHAMHADCLQELRRYLKSGVVLRRTVPPMVNVTRSEASEGNITVTCRASGFYPWNITLSWRQDGVSLSHDTQQWGDVLPDGNGTYQTWVATRICQGEEQRFTCYMEHSGNHSTHPVPSGKVLVLQSHWQTFHVSAVAAAAIFVIIIFYVRCCKKKTSAAEGPELVSLQVLDQHPVGTSDHRDATQLGFQPLMSDLGSTGSTEGA
Kd (1H7): 75 nM
Kd (1D9): 12.8 nM
Kd (1C8): 20.6 nM
Kd (1A2): 2.13 nM
Kd (1B6): 5.85 nM
Kd (1D8): 46.7 nM
Kd (1B11-2): 2.83 nM
Kd (1D7): 0.344 nM
Kd (1E1): 12.2 nM

Source: patent US20250243279A1 (published 2025)
